Target: SARS-CoV-2 RBDwt (residues 319 to 541) (SARS-CoV-2, UniProt P0DTC2 319-541)
Assay: SPR

B1: ACE2_(740) LFMYQY2HA in the IgG3 backbone with a truncated hinge (M80) (Fc fusion)
chain: QSTIEEQAKTFLDKFNHEAEDLFYQSSLASWNYNTNITEENVQNMNNAGDKWSAFLKEQSTFAQYYPLQEIQNLTVKLQLQALQQNGSSVLSEDKSKRLNTILNTMSTIYSTGKVCNPDNPQECLLLEPGLNEIMANSLDYNERLWAWESWRSEVGKQLRPLYEEYVVLKNEMARANHYEDYGDYWRGDYEVNGVDGYDYSRGQLIEDVEHTFEEIKPLYEHLHAYVRAKLMNAYPSYISPIGCLPAHLLGDMWGRFWTNLYSLTVPFGQKPNIDVTDAMVDQAWDAQRIFKEAEKFFVSVGLPNMTYGFWENSMLTDPGNVQKAVCHPTAWDLGKGDFRILMCTKVTMDDFLTAHAEMGAIQYDMAYAAQPFLLRNGANEGFHEAVGEIMSLSAATPKHLKSIGLLSPDFQEDNETEINFLLKQALTIVGTLPFTYMLEKWRWMVFKGEIPKDQWMKKWWEMKREIVGVVEPVPHDETYCDPASLFHVSNDYSFIRYYTRTLYQFQFQEALCQAAKHEGPLHKCDISNSTEAGQKLFNMLRLGKSEPWTLALENVVGAKNMNVRPLLNYFEPLFTWLKDQNKNSFVGWSTDWSPYADQSIKVRISLKSALGDKAYEWNDNEMYLFRSSVAYAMRQYFLKVKNQMILFGEEDVRVANLKPRISFNFFVTAPKNVSDIIPRTEVEKAIRMSRSRINDAFRLNDNSLEFLGIQPTLGPPNQPPVS
binding result: binds
